Measurements reported in article PMC11410670, “Growth of complete ammonia oxidizers on guanidine” (Nature, 2024).
One block for each molecule: values may come before it.

What was measured:
[1] = target: Nitrospira inopinata guanidinase (Nitrospira inopinata); experiment: SEC-MALS; Superdex 200 Increase 10/300 GL, 20 °C, 20 mM HEPES, 150 mM NaCl, pH 7.4; 80 µl injected at 1 mg/ml; hexamer in solution
[2] = substrate: N=C(N)N; experiment: urea production, thiosemicarbazide-diacetylmonoxime colorimetry, Michaelis-Menten fit; assay type: biochemical, Candidatus Nitrospira inopinata; conditions: pH 7.5, 37 °C, 20 mM Tris-HCl, 50 mM NaCl, enzyme expressed with 1 mM NiSO4 and assayed with 1 mM Ni2+

- stoichiometry N [1]: 6
Molecule: Nitrospira inopinata guanidinase (enzyme)

B1: N. inopinata guanidinase (Candidatus Nitrospira inopinata) (protein)
chain: MAKKRTYQGKVPLHDNYGPEAKYAVEAEALLPTTKFEEEIARGLELGLPGADSIKDRRIPTFSRGELPHFAGINTFIKAPYVEDVRKCGQYDVAILGAPFDGGTTYRAGTRFGPQGIRKISALYGTYSFELGVDLRESVSICDVGDIFTIPGNIEKTFDQVSKGVGHVFASGAFPVVLGGDHSLGFATVRGVAQHLNGKKLGILHFDRHVDTQDTDLDERMHTTPWFHATNIPNVPAKNLVQIGIGGWQAPRPGVKAGRERQTTIMTVTDCVEMGIENAAKQALEVAFDGVDAVWLSFDVDCLDAAFVPGTGWPEPGGFLPREVLKFLQIIADTKPLAGMEIVECAPPYDAAEITSLMATRVICDVLACQVRSGHLGNRKKR
notes: full-length, N-terminal His6-MBP tag (pCoofy4) cleaved with HRV-3C; E. coli; homohexamer 240 kDa; Ni/Mn; N-terminus from primer MAKKRTY; residues T105, H182, D207, H209, D211, H222, D299, D301, W313, E344
- Km [2]: 13.6 ± 0.76 mM
